Measured values: US20170189489A1, “CARDIAC MUSCLE FUNCTION AND MANIPULATION” (Zensun (Shanghai) Science & Technology, Co., Ltd., priority 1998, published 2017)
“Also recorded” adds a separate entry of the source. Each block holds one molecule with its values, some of them ahead of it.

Legend:
[1] = system: embryonic mouse cardiomyocytes; test: DNA synthesis ([3H] thymidine incorporation) in cultured embryonic mouse cardiomyocytes; format: cell-based; details: for effect on IGF-I (10^−9M)-stimulated DNA synthesis: 20 hrs
Procedure: (§1) Mouse embryos (E11.5-12.5) were used to prepare primary cardiac myocytes. Heart tissue was isolated aseptically from embryos. Myocardial cells were isolated by collagenase digestion and separated from non cardiomyocytes by preattachments on culture dishes that was performed three times. Cells were then cultured as described previously. Using this method, it was routinely possible to obtain primary cultures with >90% myocytes.
Embryonic myocardial cells were cultured with rhNRGβ2 or IGF-I containing serum-free DMEM for 20 hrs. [methyl-^3H] Thymidine (0.5 μCi/well) was added and cells were then cultured for a further 12 hrs. After rinsing twice with cold PBS, once with ice-cold 10% trichloroacetic acid, and then five times with ice-cold PBS, the cells were dissolved in 100 μl of 1% SDS, and counted in a liquid scintillation counter.
(§2) All of the above assays were repeated at least three times for each experiments. Data for DNA synthesis and MAP kinase activity are presented as the mean±S.E of five replicate samples. Statistical significance was determined by ANOVA using the SAS statistical package with P<0.05 being considered significant. Immunoblots were quantitated by densitometry analysis with the intensity of the evaluated protein bands being shown below the blots as the fold changes over control (see FIGs).

[2] = system: p42/p44 MAP kinases; test: p42/p44 MAP kinase phosphorylation in embryonic cardiomyocytes (immunoblot); format: cell-based, mouse
Procedure: as §1
(§3) Embryonic myocardial cells were cultured in serum-free medium for at least 24 hrs and then stimulated with rhNRGβ2 or IGF-I for various times. Stimulation was terminated by washing cells rapidly with cold PBS. To block the MAP kinase activation, the MEK inhibitor, PD98059, was added to the medium 30 mins prior to the administration of rhNRGβ2 or IGF-I. Cells were then harvested as previously described for Western blot analysis with HRPO-conjugated monoclonal antibody RC20H (1:2,000) for detection of phosphorylated ErbB receptors, or a phospho-specific p42/p44 MAP kinase antibody (dilution ratio 1:1,000) for detection of phosphorylated MAP kinases. The same amount of cell extract protein was loaded into each lane and separated by SDS-PAGE. Immunobloting with an anti-ErbB receptor or anti-p42/44 MAP kinase antibodies was also used to normalise for protein loading. MAP-kinase (p42/p44) activity was measured using a p42/44 MAP kinase enzyme assay kit (RPN84; Amersham, Bucks, U.K.) according to the manufacturer's instructions.

[3] = system: p21^CIP1; test: p21^CIP1 protein expression in embryonic cardiac muscle cells (immunoblot); format: cell-based, mouse
Procedure: as §1
Embryonic myocardial cells cultured in serum-free or 5% FBS medium were stimulated with various concentrations of rhNRGβ2 with or without the MEK inhibitor, PD98059, for 24 or 48 hrs, harvested as described above and subjected to immunoblot analysis using an anti-p21^CIP1 antibody (1:100). The same amount of protein was loaded into each well of a SDS polyacrylamide gel. After immunoblotting, the membrane was stripped and probed further with an antibody to the ErbB2 receptor for normalisation of protein loading.

[4] = system: neonatal rat cardiac muscle cells; test: Sarcomeric and cytoskeleton structures and MHC-α expression of cultured neonatal rat cardiac muscle cells; format: cell-based; details: for sarcomeric and cytoskeleton structures, cell-cell adhesions: single agent, Phalloidin and anti-α-actinin staining
Procedure: By using primary cultured myocardial cells as a model system, the present inventor evaluated neuregulin signalling in cardiac myocyte differentiation, maturation and assembly or maintenance of sarcomeric and cytoskeleton structures. To assay the neuregulin effect on cell signalling, embryonic cardiac muscle cells were incubated with recombinantly purified human neuregulin ligand (rhNRGβ2). […] Such an effect was not found from the cells stimulated with either insulin IGF-1 or PE. […] These findings indicate that NRG function through two distinct pathways: one activated at lower ligand concentrations results in cardiomyocyte growth, whereas the other, activated with higher concentrations, is mediated by sustained activation of the MAP kinase pathway and results in terminal differentiation and maturation.
(§4) Myocardial cells were plated in 2-well Novex plates (Nunc), and cultured with or without rhNRGβ2 in serum-free DMEM medium for 24-48 hour. After rinsing the cells with PBS, they were fixed with 4% paraformaldehyde and 0.1% Triton X-100 at room temperature for 30 minutes. The fixed cells were then blocked with 5% skim milk in PBS for 1 hr, followed by incubation with an anti-α-actinin monoclonal antibody (Sigma), for 45 minutes at room temperature. After washing, anti-mouse IgG conjugated with FITC (Sigma) was added and the cells were incubated for another half hour. For phalloidin staining, cells were fixed with 4% formadehyde for 1 hr, washed, and stained with phalloidin buffer (100 μl PBS, 10 μl rhodarmine phalloidin (6.6 μM in MeOH)) for 1 hr. After PBS washing, cells were mounted with 1% p-phenylenediamine (1 mg/ml, Sigma) in glycerol, and then covered and sealed. Cells were examined using a UV fluorescent microscope and photographed with a 40× power objective.

[5] = system: ventricular muscle cells; details: cited from earlier work; for hypertrophy score (maximal increase in cell size): scale 7 to 0, 3 = non-stimulated cells, 7 = fully hypertrophied
[6] = system: E12.5 mouse cardiac muscle cells; test: Sarcomeric and cytoskeletal structure of embryonic mouse cardiac muscle cells (phalloidin and anti-α-actinin staining); format: cell-based; details: for sarcomeric actin reorganisation and contractile unit assembly: 48 hrs, serum-free
Procedure: as §1, §4

[7] = system: MCF-7 breast cancer cell ErbB receptors; test: Stimulation of MCF-7 breast cancer cell ErbB receptors (activity check of purified protein); format: cell-based; details: ligand 10^−12M to 10^−8M, MCF-7 cells
Description: A cDNA encoding the EGF-like domain of human NRGβ2 isoform (rhNRGβ2, residues 177-237, was inserted into the pFLAG1 expression vector (IBI) (a gift from Dr. Rodney J. Fiddes, Co-operative Research Centre for Biopharmaceutical Research, Australia). rhNRGβ2 with a FLAG-peptide attached at its N-terminus, was expressed in the periplasmic space of E. coli DH5α, and purified by affinity chromatography using anti-FLAG M1 monoclonal antibody according to the manufacturer's instructions. The purity of rhNRGβ2 was more than 90% as evidenced by SDS-PAGE separation and Coomassie Blue staining of purified protein samples. The concentration of purified proteins was determined using a Bio-Rad protein assay kit. Activity of the purified proteins was assayed by stimulation of MCF-7 breast cancer cell ErbB receptors with various ligand doses.

[8] = system: sarcomeric myosin heavy chains; test: Sarcomeric myosin heavy chain and sarcomeric actin expression in embryonic mouse cardiac muscle cells (immunoblot); format: cell-based; details: rhNRGβ2-stimulated
Procedure: FIGS. 6A-6B. Effects of NRG on cardiac sarcomere assembly and myosin heavy chains expression. FIG. 6A. E12.5 mouse cardiac muscle cells were cultured in serum-free medium (control) or stimulated with 10^−10 or 10^−8M rhNRGβ2 (NRG) for 48 hrs. Cells were then stained with phalloidin (left panels) or evaluated for anti-α-actinin immunoflorescency (right panels). FIG. 6B. Sarcomeric myosin heavy chain α-actin expression rhNRGβ2-stimulated embryonic mouse cardiac muscle cells were evaluated by immunoblot analysis using an anti-sarcomeric myosin heavy chain antibody (MF20) or an anti-α-actinin antibody. The same amount of whole cell extracts (20 μg proteins) was loaded into each lane for SDS-PAGE fractionation.
as §1

[9] = system: p42/p44 MAP kinases; test: MAP kinase catalytic activity in extracts of treated cardiomyocytes (p42/44 MAP kinase enzyme assay kit); format: cell-based, mouse
Procedure: as §1
Embryonic myocardial cells were cultured in serum-free medium for at least 24 hrs and then stimulated with rhNRGβ2 or IGF-I for various times. Stimulation was terminated by washing cells rapidly with cold PBS. […] MAP-kinase (p42/p44) activity was measured using a p42/44 MAP kinase enzyme assay kit (RPN84; Amersham, Bucks, U.K.) according to the manufacturer's instructions.
as §2, with “Data for DNA synthesis and MAP kinase activity are presented as the mean±S.E of five replicate samples.” left out

[10] = molecular target: T1, ErbB2 and ErbB4 receptors (Mus musculus, UniProt Q61527); test: ErbB receptor phosphorylation in embryonic cardiomyocytes (Western blot / immunoprecipitation); format: cell-based
T1 construct: ErbB2 and ErbB4 are most abundantly expressed in cardiac myocytes; endogenous in cells; host or cells: primary embryonic (E11.5-12.5) mouse cardiac myocytes
T1 sequence (Q61527 26-1308): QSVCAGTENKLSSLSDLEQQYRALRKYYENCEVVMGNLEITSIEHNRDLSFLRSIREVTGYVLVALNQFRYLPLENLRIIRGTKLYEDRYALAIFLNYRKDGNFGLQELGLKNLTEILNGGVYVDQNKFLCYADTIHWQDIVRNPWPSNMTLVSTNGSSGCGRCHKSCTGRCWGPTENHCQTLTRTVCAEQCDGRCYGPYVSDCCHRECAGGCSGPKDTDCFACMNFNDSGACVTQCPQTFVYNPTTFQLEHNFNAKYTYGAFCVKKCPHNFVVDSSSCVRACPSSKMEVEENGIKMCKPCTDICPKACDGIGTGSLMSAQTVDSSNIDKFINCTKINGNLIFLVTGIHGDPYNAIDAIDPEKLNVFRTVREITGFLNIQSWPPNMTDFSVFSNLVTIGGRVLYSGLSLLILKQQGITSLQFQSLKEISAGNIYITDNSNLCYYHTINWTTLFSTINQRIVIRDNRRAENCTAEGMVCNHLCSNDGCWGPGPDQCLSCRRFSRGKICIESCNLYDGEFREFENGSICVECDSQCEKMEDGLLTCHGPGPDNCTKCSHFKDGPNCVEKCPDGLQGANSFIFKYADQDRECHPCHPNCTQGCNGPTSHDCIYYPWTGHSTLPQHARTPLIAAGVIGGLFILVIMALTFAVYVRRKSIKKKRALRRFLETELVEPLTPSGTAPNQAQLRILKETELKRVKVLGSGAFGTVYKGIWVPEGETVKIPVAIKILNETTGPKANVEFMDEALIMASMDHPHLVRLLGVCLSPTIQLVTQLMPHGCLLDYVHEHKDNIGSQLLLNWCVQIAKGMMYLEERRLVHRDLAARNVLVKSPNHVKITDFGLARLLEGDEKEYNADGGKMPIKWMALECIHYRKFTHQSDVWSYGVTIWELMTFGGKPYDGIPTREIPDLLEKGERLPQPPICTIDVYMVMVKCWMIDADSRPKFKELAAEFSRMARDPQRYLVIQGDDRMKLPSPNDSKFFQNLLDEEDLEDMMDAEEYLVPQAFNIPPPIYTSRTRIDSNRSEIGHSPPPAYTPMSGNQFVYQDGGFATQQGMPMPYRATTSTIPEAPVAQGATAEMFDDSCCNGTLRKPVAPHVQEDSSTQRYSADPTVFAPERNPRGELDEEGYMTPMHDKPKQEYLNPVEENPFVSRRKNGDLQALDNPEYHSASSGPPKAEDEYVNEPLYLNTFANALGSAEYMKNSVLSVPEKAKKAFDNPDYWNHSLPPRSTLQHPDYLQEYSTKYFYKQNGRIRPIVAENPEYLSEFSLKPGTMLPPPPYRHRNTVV
T1 sequence (P70424 23-1256 partner): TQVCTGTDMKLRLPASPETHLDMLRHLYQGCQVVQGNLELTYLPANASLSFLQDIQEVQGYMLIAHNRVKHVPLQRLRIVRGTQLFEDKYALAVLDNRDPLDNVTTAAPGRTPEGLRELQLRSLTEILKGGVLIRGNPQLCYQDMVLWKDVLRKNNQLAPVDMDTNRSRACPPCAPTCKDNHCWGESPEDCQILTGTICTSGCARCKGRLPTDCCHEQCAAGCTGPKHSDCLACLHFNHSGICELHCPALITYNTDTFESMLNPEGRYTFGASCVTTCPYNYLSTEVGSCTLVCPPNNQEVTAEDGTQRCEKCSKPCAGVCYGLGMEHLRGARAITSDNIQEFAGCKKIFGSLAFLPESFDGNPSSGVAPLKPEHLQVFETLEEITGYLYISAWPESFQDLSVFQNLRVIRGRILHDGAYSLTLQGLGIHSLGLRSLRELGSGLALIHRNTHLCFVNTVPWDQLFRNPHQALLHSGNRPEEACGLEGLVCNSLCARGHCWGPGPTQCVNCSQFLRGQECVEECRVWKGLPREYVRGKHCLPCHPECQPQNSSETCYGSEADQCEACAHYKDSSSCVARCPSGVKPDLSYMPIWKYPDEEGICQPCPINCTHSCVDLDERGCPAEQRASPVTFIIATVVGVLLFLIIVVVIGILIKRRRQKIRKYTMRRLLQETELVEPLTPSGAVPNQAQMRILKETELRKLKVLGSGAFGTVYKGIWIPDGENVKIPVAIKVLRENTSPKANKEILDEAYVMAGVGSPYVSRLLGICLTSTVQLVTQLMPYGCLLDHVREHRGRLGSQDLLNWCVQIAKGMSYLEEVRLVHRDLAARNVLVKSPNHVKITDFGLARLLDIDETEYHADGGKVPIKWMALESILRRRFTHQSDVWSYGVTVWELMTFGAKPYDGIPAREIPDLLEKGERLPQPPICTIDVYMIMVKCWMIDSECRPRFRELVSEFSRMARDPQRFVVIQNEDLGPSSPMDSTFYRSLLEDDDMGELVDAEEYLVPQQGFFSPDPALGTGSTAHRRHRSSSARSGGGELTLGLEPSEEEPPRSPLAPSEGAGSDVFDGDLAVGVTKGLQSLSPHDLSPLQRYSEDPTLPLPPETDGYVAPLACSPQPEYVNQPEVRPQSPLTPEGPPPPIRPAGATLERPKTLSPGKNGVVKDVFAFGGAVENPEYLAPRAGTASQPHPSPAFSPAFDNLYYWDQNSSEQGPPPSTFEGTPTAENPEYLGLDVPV
Procedure: as §1
as §3, with “Immunobloting with an anti-ErbB receptor or anti-p42/44 MAP kinase antibodies was also used to normalise for protein loading.” left out

MAP kinase phosphorylation time course ([2]; IGF-I low (10^−9M) and high (10^−8M or 10^−7M) concentrations): transient
Molecule: IGF-I: recombinant human insulin-like growth factor I, commercially obtained (Boehringer)
DNA synthesis response ([1]; concentrations ranging from 10^−11M to 10^−7M): only a proliferative response | p21^CIP1 expression ([3]; IGF-I 10^−10M or 10^−8M): did not stimulate p21^CP1 expression | sarcomeric and cytoskeleton structures, cell-cell adhesions [4]: not found

effect on NRG-induced increase in p42/44 MAP kinase phosphorylation ([2]; PD98059 added 30 mins before, cells stimulated 5 min): blocked
Molecule: COc1cccc(-c2cc(=O)c3ccccc3o2)c1N [PD98059, reference compound]
sensitivity of rhNRGβ2 effects on cardiomyocytes to MEK1 inhibition ([6]; PD98059): sensitive to MEK1 inhibition | effect on p21^CIP1 expression induced by 10^−8M rhNRGβ2 ([3]; PD98059 50 μM, presence or absence of serum): blocked the increase in p21^CIP1 expression

duration of p42/p44 MAP kinase phosphorylation ([2]; 10^−8M (higher dose)): at least 21 hours | MAP kinase activation (phosphorylation) time course ([2]; 10^−10M (lower ligand concentration), fell to basal level in less than three hours): only transient activation | MAP kinase phosphorylation time course ([2]; combination of IGF-I (10^−9M) and rhNRGβ2 (10^−8M)): sustained MAP kinase phosphorylation | phosphorylation of immunoprecipitated ErbB2 and ErbB4 ([10]; 5 min stimulation, 10^−10M or 10^−8M): dependent on rhNRβ2 concentrations
B1: rhNRGβ2: EGF-like domain of human NRGβ2 isoform, residues 177-237 (SEQ ID NO: 2), FLAG-peptide at N-terminus, expressed in E. coli DH5α (protein, listed as Homo sapiens)
chain: {FLAG}-SHLVKCAEKEKTFCVNGGECFMVKDLSNPSRYLCKCPNEFTGDRCQNYVMASFYKAEELYQ
modifications: also: recombinant protein expressed in E. coli
effect on IGF-I (10^−9M)-stimulated DNA synthesis ([1]; 10^−8M NRG): significantly blocked the IGF-I response | effect on IGF-I (10^−9M)-stimulated DNA synthesis ([1]; 10^−10M NRG): little effect | DNA synthesis response versus control (vehicle) ([1]; all concentrations except 10^−7M, P<0.001, 20 hr): significantly greater than control | DNA synthesis ([1]; ligand concentrations >10^−10M): decreased | increase in DNA synthesis ([1]; rhNRGβ2 at 10^−10, 20 hr treatment, embryonic mouse cardiomyocytes (E11.5-12.5)): approximately 2 fold | sarcomeric actin reorganisation and contractile unit assembly ([6]; 10^−8M): stimulated both sarcomeric actin reorganisation (phalloidin staining) and cardiac contractile unit assembly | sarcomeric actin reorganisation and contractile unit assembly ([6]; 10^−10M): much less evident | ErbB receptor phosphorylation [7]: increased ErbB receptor phosphorylation with increasing ligand concentration | expression of sarcomeric myosin heavy chains ([8]; MF20 immunoblot): enhanced expression of sarcomeric myosin heavy chains | sarcomeric actin expression ([8]; immunoblot): remained unchanged | duration of MAP kinase catalytic activity ([9]; 10^−8M): at least 21 hours | MAP kinase catalytic activity time course ([9]; 10^−10M): only transient | duration of enhanced p21^CIP1 expression ([3]; 10^−8M): at least 24 hours | p21^CIP1 expression ([3]; 10^−8M (higher concentration), serum-free or 5% FBS, 24 hrs): increase in p21^CIP1 expression; also recorded: enhanced | phosphorylation of 180-185 kDa proteins corresponding to ErbB2/ErbB4 receptors ([10]; 10^−8M compared with 10^−10M, cell lysates): a higher level of phosphorylated 180-185 kDa proteins | improvement of sarcomeres and cell-cell adhesions ([4]; 10^−8M concentration): maximal effect | cell structures when mixed with either IGF-1 or PE ([4]; rhNRGβ2 mixed with IGF-1 or PE): improved the cell structures | sarcomeric and cytoskeleton structures, cell-cell adhesions [4]: dramatically improved sarcomeric and cytoskeleton structures, as well as cell-cell adhesions | MHC-α expression under PE stimulation ([4]; with PE): overrode the negative regulation of MHC-α expression

Continued, molecule first:

Molecule: CC[C@H](C)[C@H](NC(=O)[C@H](CC(=O)O)NC(=O)[C@H](CC(C)C)NC(=O)[C@H](Cc1c[nH]cn1)NC(=O)[C@@H]1CSSC[C@H](N)C(=O)N[C@@H](CO)C(=O)N[C@H]2CSSC[C@H](NC(=O)[C@H](CCC(=O)O)NC(=O)[C@H](CCCCN)NC(=O)[C@H](CC(=O)O)NC(=O)[C@H](CCSC)NC(=O)[C@H](CC(C)C)NC(=O)[C@H](CO)NC(=O)[C@H](CO)NC2=O)C(=O)N[C@@H](C(C)C)C(=O)N[C@@H](Cc2ccc(O)cc2)C(=O)N[C@@H](Cc2ccccc2)C(=O)N1)C(=O)N[C@H](C(=O)N[C@@H](Cc1c[nH]c2ccccc12)C(=O)O)[C@@H](C)CC [endothelin]
hypertrophy score (maximal increase in cell size) [5]: ~5

Molecule: CNC[C@H](O)c1cccc(O)c1 [PE, phenylephrine]
surface area/cell of fully hypertrophied cells ([5]; non-exposed cells 581 μm^2): 1811 μm^2 | hypertrophy score (maximal increase in cell size) [5]: 7 | sarcomeric and cytoskeleton structures, cell-cell adhesions [4]: not found
